In general, EC50 refers to the midpoint of the concentration-response curve.

Our source for the EC50 values is patent publication US20230227537A1.

For the assay, the target named is recombinant prefusion stabilized SARS-CoV-2-2P spike protein (SARS-CoV-2) (UniProt P0DTC2).

Consider “D72-15: VHH72-GS-hIgG1hinge-hIgG1Fc-L234A-L235A-P329G (Fc fusion)”, for which the EC50 came to 0.014 µg/mL.
